Source: patent US20260199558A1, “INJECTABLE COMPOSITIONS FOR TREATING JOINT CONDITIONS” (Ohio State Innovation Foundation, priority 2022, published 2026)

Key:
[1] = tested on: human cartilage endplate (CEP) cells; test: PDA nanoparticle / free bevacizumab dose effect on human cartilage endplate (CEP) cell viability; format: cell-based
[2] = tested on: human annulus fibrosus (AF) cells; test: PDA nanoparticle / free bevacizumab dose effect on human annulus fibrosus (AF) cell viability; format: cell-based; conditions: doses higher than 1 mg/mL

Bevacizumab
cell viability ([1]; 1 mg/mL dosing): 30%
cell viability ([1]; up to 0.5 mg/mL): > 80%
cell viability [2]: approximately 30%
